# Data published in patent publication US20230057263A1 (CYTOMX THERAPEUTICS, published 2023).
# No end group written: not given here. *: point of attachment. Biotin = O=C1N[C@H]2[C@H](CS[C@H]2CCCCC(=O)*)N1; code X = not defined here; linker = not defined here
# T1: biotinylated 15-mer peptide corresponding to the CD3ε N-terminus (human, UniProt P07766 22-36, limits assumed, not fully specified; reading uncertain)
# T1 construct: domain: N-terminal 15-mer; Immobilised on streptavidin-conjugated Luminex beads; The text says 'peptides' in the plural, so more than one overlapping N-terminal 15-mer may be meant; also called N-terminal 15-mer; biotinylated N-terminal 15-mer
# T1 peptide (looked up): {Biotin-linker}-QDGNEEMGGITQTPY
# T2: B X GNEEMGGITQTPYKV (reading uncertain)
# T2 construct: row 4 of the chart; also called biotinylated 15-mer, residues 3-17
# T2 peptide: {Biotin-code X}-GNEEMGGITQTPYKV
# T3: B X EMGGITQTPYKVSIS (reading uncertain)
# T3 construct: row 7 of the chart; also called biotinylated 15-mer, residues 6-20
# T3 peptide: {Biotin-code X}-EMGGITQTPYKVSIS
# T4: B X GITQTPYKVSISGTT (reading uncertain)
# T4 construct: row 10 of the chart; also called biotinylated 15-mer, residues 9-23
# T4 peptide: {Biotin-code X}-GITQTPYKVSISGTT
# T5: B X GGITQTPYKVSISGT (reading uncertain)
# T5 construct: row 9 of the chart; also called biotinylated 15-mer, residues 8-22
# T5 peptide: {Biotin-code X}-GGITQTPYKVSISGT
# T6: B X EEMGGITQTPYKVSI (reading uncertain)
# T6 construct: row 6 of the chart; also called biotinylated 15-mer, residues 5-19
# T6 peptide: {Biotin-code X}-EEMGGITQTPYKVSI
# T7: B X QDGNAEMGGITQTP (reading uncertain)
# T7 construct: row 19 of the chart; 14 residues; also called alanine-scan peptide E5A
# T7 peptide: {Biotin-code X}-QDGNAEMGGITQTP
# T8: B X QDGAEEMGGITQTP (reading uncertain)
# T8 construct: row 18 of the chart; 14 residues; also called alanine-scan peptide N4A
# T8 peptide: {Biotin-code X}-QDGAEEMGGITQTP
# T9: B X DGNEEMGGITQTPYK (reading uncertain)
# T9 construct: row 3 of the chart; also called biotinylated 15-mer, residues 2-16
# T9 peptide: {Biotin-code X}-DGNEEMGGITQTPYK
# T10: B X ADGNEEMGGITQTPY (reading uncertain)
# T10 construct: row 15 of the chart; also called alanine-scan peptide Q1A
# T10 peptide: {Biotin-code X}-ADGNEEMGGITQTPY
# T11: (H2N-KEFSELEQSGYYVCYPRGSNPEDA-OH) vCD3e #p3-BSA (conjugated to BSA)
# T11 construct: also called control peptide #p3
# T11 peptide: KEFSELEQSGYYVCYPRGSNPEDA
# T12: B X QDANEEMGGITQTP (reading uncertain)
# T12 construct: row 17 of the chart; 14 residues; also called alanine-scan peptide G3A
# T12 peptide: {Biotin-code X}-QDANEEMGGITQTP
# T13: B X ITQTPYKVSISGTTV (reading uncertain)
# T13 construct: row 11 of the chart; also called biotinylated 15-mer, residues 10-24
# T13 peptide: {Biotin-code X}-ITQTPYKVSISGTTV
# T14: B X TQTPYKVSISGTTVI (reading uncertain)
# T14 construct: row 12 of the chart; also called biotinylated 15-mer, residues 11-25
# T14 peptide: {Biotin-code X}-TQTPYKVSISGTTVI
# T15: B X NEEMGGITQTPYKVS (reading uncertain)
# T15 construct: row 5 of the chart; also called biotinylated 15-mer, residues 4-18
# T15 peptide: {Biotin-code X}-NEEMGGITQTPYKVS
# T16: B X QDGNEEMGAITQTP (reading uncertain)
# T16 construct: row 23 of the chart; 14 residues; also called alanine-scan peptide G9A
# T16 peptide: {Biotin-code X}-QDGNEEMGAITQTP
# T17: B X MGGITQTPYKVSISG (reading uncertain)
# T17 construct: row 8 of the chart; also called biotinylated 15-mer, residues 7-21
# T17 peptide: {Biotin-code X}-MGGITQTPYKVSISG
# B1: 6d59 (antibody, V domains shown)
# VH: QVHLVESGGGVVQPGRSLRLSCAASGFKFRSYGMHWVRQAPGKGLEWVAIIWYDGSKRYYADSVKGRFTISRDNSKNTLYLQMSSLRAEDTAVYYCARDLITGTTDYWGQGTLVTVSS
# VL: DVVMTQSPLSLPVTLGQPASISCRSSRSLVYSDGNTHLIWFQQRPGQSPRRLIYRVSNRVSGVPDRFSGSGSGTDFTLKISRVEAEDVGVYYCLQGAHWPYTFGQGTKLEIKR
# notes: also called 6d59.1; VCD3-6d59.1
# Columns and labels:
# Test in all cases: Luminex bead assay, 1 ug/ml antibody [Cont.]
# [1] = molecular target: T1, biotinylated 15-mer peptide …
# Experimental: (§1) A set of experiments was performed to map the epitope recognized by the anti-CD3ε antibodies. In these experiments, the anti-CD3ε antibodies were assessed for binding to a collection of overlapping 15-mer peptides spanning amino acids 1-27 of human CD3ε protein using a Luminex bead assay. Control CD3 proteins, control peptides, or the test peptides were immobilized on Luminex beads and incubated with a panel of anti-CD3 antibodies. Binding of the anti-CD3 antibodies to the peptide/protein immobilized on the Luminex bead was detected by R-Phycoerythrin conjugated secondary antibody.
# (§2) Recombinant CD3 proteins (human CD3d/e heterodimer and cynomolgus CD3-epsilon (Sinobiological)) and control peptides (#p1, #p2, and #p3) were conjugated to Luminex beads using standard EDC/Sulfo-NHS chemistry. The 15-mer test peptides were synthesized as biotinylated peptides at JPT Peptide Technologies Gmbh and were immobilized on streptavidin-conjugated Luminex beads that were made using standard EDC/Sulfo-NHS chemistry and streptavidin (Invitrogen Cat. No. 434301 lot 1626028A). The Luminex beads with immobilized peptides or reagents were incubated with 50 ul of a panel of anti-CD3 antibodies (1 ug/ml) for one hour at room temperature, washed two times, incubated with mixture of anti-human and anti-mouse IgG-RPE (Jackson Immunoresearch 109-116-097 and Southern Biotech 1030-09, respectively) for 30 mins at RT, washed three times, and analyzed in the Luminex instrument to assess the level of bound anti-CD3 antibodies.
# [2] = molecular target: T18, huCD3d/eCHO-E DT1331 (human, UniProt P04234)
# T18 construct: recombinant, part of a CD3 delta/epsilon heterodimer; coupled to Luminex beads
# Experimental: as §1, §2
# [3] = molecular target: T2, B X GNEEMGGITQTPYKV
# Experimental: as §1, §2
# [4] = molecular target: T3, B X EMGGITQTPYKVSIS
# Experimental: as §1, §2
# [5] = molecular target: T4, B X GITQTPYKVSISGTT
# Experimental: as §1, §2
# [6] = molecular target: T5, B X GGITQTPYKVSISGT
# Experimental: as §1, §2
# [7] = molecular target: T6, B X EEMGGITQTPYKVSI
# Experimental: as §1, §2
# [8] = molecular target: T7, B X QDGNAEMGGITQTP
# Experimental: as §1, §2
# [9] = molecular target: T19, BSA alone (bovine, UniProt P02769)
# T19 construct: carrier protein without peptide
# Experimental: as §1, §2
# [10] = molecular target: T8, B X QDGAEEMGGITQTP
# Experimental: as §1, §2
# [11] = molecular target: T20, vCD3e #p1 peptide
# T20 construct: also called control peptide #p1
# Experimental: as §1, §2
# [12] = molecular target: T9, B X DGNEEMGGITQTPYK
# Experimental: as §1, §2
# [13] = molecular target: T10, B X ADGNEEMGGITQTPY
# Experimental: as §1, §2
# [14] = molecular target: T11, (H2N-KEFSELEQSGYYVCYPRGSNPEDA-OH) vCD3e …
# Experimental: as §1, §2
# [15] = molecular target: T12, B X QDANEEMGGITQTP
# Experimental: as §1, §2
# [16] = molecular target: T13, B X ITQTPYKVSISGTTV
# Experimental: as §1, §2
# [17] = molecular target: T14, B X TQTPYKVSISGTTVI
# Experimental: as §1, §2
# [18] = molecular target: T15, B X NEEMGGITQTPYKVS
# Experimental: as §1, §2
# [19] = molecular target: T16, B X QDGNEEMGAITQTP
# Experimental: as §1, §2
# [20] = molecular target: T17, B X MGGITQTPYKVSISG
# Experimental: as §1, §2
# T18 sequence (P04234 22-105): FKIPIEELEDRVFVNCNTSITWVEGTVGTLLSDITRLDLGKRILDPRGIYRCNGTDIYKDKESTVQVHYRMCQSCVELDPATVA
# T19 sequence (P02769 25-607 limits assumed): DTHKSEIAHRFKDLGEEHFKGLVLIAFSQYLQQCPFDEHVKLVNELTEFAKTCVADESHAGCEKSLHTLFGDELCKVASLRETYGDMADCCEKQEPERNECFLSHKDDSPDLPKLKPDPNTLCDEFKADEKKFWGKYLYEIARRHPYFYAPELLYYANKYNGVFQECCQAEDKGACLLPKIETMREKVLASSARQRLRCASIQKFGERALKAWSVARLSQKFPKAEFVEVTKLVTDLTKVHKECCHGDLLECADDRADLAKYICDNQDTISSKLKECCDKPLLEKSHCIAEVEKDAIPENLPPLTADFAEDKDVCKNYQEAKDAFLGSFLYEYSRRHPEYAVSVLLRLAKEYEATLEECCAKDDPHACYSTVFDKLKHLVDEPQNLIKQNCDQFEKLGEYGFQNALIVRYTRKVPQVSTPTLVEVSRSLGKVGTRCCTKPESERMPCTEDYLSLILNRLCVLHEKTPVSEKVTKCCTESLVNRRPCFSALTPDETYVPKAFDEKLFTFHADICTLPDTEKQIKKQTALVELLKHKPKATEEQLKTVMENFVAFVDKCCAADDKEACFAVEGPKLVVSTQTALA
binder,measurement,setting,value
B1,Luminex signal,[1],3160
same,Luminex signal,[2],23200
same,Luminex signal,[3],44.5
same,Luminex signal,[4],44.5
same,Luminex signal,[5],43
same,Luminex signal,[6],29.5
same,Luminex signal,[7],43
same,Luminex signal,[8],483
same,Luminex signal,[9],420
same,Luminex signal,[10],48
same,Luminex signal,[11],20300
same,Luminex signal,[12],404
same,Luminex signal,[13],11300
same,Luminex signal,[14],473
same,Luminex signal,[15],32.5
same,Luminex signal,[16],29.5
same,Luminex signal,[17],47.5
same,Luminex signal,[18],40.5
same,Luminex signal,[19],2660
same,Luminex signal,[20],26.5
